Laboratory results: patent publication US20250154215A1, “PHARMACEUTICAL COMPOSITION FOR TREATING COLITIS OR COLORECTAL CANCER COMPRISING COLON-TARGETED S100A8/A9-DERIVED SPECIFIC PEPTIDE” (Industry-University Cooperation Foundation Hanyang …, priority 2023, published 2025)
No end group written: not given here.

Tests used:
[1] = tested on: OxaR CRC cells (HT29, HCT116 and SW480); test: WST-8-based cell viability assay in parental and drug-resistant CRC cell lines; conditions: HT29, HCT116, SW480 OxaR; 24 hours
Description: To establish a CRC cell model resistant to oxaliplatin, doxorubicin, or 5-FU, HT29, HT116, and SW480 cells were exposed to progressively increasing concentrations of oxaliplatin, doxorubicin, or 5-FU. The established oxaliplatin, doxorubicin, and 5-FU resistant cells were named OxaR, DoxR, and 5-FuR cells, respectively.
To confirm the inhibitory effect of rCT-S100A8/A9 on oxaliplatin resistance, the present inventors performed a water-soluble tetrazolium-8 (WST-8)-based cell viability assay using parental cells of three CRC cell lines, HT29, HCT-116 and SW480, and their corresponding oxaliplatin-resistant (OxaR) cell lines. OxaR CRC cells (HT29, HCT116 and SW480) were established by long-term exposure of CRC cells to oxaliplatin as described in Example 1.

[2] = The results of in vitro plasma stability, microsomal stability, CYP inhibition and PK profile of S100A8/A9 peptides and rCT-S100A8/A9 proteins; conditions: mouse, plasma, ip, 1 mg/kg
Experimental: Table printed on a drawing sheet, Fig. 5B
Title: The results of in vitro plasma stability, microsomal stability, CYP inhibition and PK profile of S100A8/A9 peptides and rCT-S100A8/A9 proteins
The patent's description of the figure: FIGS. 5A and 5B show the drug-like properties of rCT-S100A8/A9. […] Bacteria-purified 6×His-rCT-S100A8/9, rVehicle or rCT was analyzed by Coomassie staining or IB using αHis (bottom, left). BMDMs were incubated with rVehicle, rCT, or rCT-S100A8/9 for the indicated times and at the indicated concentrations, and then cell viability was measured by MTT assay (bottom, right). […] HLM, human liver microsomes; CYP, cytochrome P450. aTmax, arrival time; AUClast, total area under the plasma concentration-time curve from time 0 to the time of the last measurement; Cmax, maximum plasma concentration;
First reader's note: All values were measured after ip dosing of 1 mg/kg in mice (n = 5); the footnote for the raised a is not printed on the sheet, and the title stands once above both tables.

[3] = biological target: T1, endogenous TLR4 of mouse BMDMs and mouse colon (mouse, UniProt Q9QUK6 26-835); test: co-IP from mouse colon lysates (IP αTLR4, IB αS100A8), FIG. 1D
T1 construct: whole, on cells; Endogenous protein, immunoprecipitated with αTLR4 from BMDM or colon lysates; also called toll-like receptor 4
T1 sequence (looked up): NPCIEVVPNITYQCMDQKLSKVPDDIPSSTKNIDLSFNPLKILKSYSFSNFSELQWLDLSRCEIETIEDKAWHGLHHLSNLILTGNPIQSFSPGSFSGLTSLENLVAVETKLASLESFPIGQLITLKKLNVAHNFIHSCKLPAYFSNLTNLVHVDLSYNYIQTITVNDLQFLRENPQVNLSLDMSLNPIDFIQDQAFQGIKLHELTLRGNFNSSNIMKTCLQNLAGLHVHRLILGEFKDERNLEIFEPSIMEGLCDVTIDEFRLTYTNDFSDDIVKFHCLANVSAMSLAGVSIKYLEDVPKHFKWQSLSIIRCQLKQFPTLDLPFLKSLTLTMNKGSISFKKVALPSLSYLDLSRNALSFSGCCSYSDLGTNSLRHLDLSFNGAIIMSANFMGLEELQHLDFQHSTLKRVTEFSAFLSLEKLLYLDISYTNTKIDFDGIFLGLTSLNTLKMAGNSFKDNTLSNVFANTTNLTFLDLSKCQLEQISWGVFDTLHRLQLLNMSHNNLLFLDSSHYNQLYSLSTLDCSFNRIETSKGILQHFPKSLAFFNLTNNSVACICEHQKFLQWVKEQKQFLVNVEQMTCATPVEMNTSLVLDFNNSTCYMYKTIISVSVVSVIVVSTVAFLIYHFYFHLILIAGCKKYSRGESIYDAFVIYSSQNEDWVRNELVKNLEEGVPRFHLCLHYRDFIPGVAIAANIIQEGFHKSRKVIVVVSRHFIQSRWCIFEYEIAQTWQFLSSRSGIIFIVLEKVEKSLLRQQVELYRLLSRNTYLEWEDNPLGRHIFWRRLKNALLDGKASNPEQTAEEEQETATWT
Experimental: (§1) The 293T cells were used for immunoprecipitation (IP) including αMyc, and then for immunoblotting (IB) including αHA or αHis. […] Bone marrow-derived macrophages (BMDMs) were incubated with rHA-S100A8 or rHis-S100A9 (5 μg/ml) for 10 minutes. The BMDMs were subjected to IP using αTLR4 (FIG. 1A, right) or αRAGE (FIG. 1B, right), and then subjected to IB using αHA, αHis, αTLR4, or αRAGE. The WCLs were used for IB including αHA, αHis, αTLR4, αRAGE, or αActin. In FIG. 1C, on the left, relative expression of S100A8 or S100A9 in colons of normal, acute colitis, chronic colitis, and colorectal cancer mice was determined, and biological replicates (n=10) were used for each condition. On the right, IB was performed on sera from normal, acute colitis, chronic colitis, and colorectal cancer mice using αS100A8 or αS100A9. Coomassie blue (CB)-stained gels show consistent loading of serum proteins. Data from 3 out of 10 samples is shown. […] The WCLs were used for IB including αS100A8, αS100A9, αTLR4, αRAGE, or αActin. Data is representative of seven independent experiments with similar results (FIGS. 1A-1D);
(§2) 293T, BMDMs, and THP-1 cells were treated as indicated and processed for analysis by GST pulldown, Western blotting, and co-IP analysis. For GST pulldown, 293T cells were harvested and lysed in an NP-40 buffer including a complete protease inhibitor cocktail (Roche, Basel, Switzerland). […]

[4] = biological target: T2, endogenous RAGE of mouse BMDMs and mouse colon (mouse, UniProt Q62151 23-402); test: co-IP from colon lysates of acute colitis, chronic colitis and CRC mice (IP αRAGE, IB αS100A8), FIG. 1D
T2 construct: whole, on cells; Endogenous protein, immunoprecipitated with αRAGE from BMDM or colon lysates; also called receptor for advanced glycation end products
Experimental: as §1, §2

[5] = biological target: T2, endogenous RAGE of mouse BMDMs and …; test: co-IP in BMDMs incubated with recombinant protein at 5 µg/ml (IP αRAGE, IB αHA), FIG. 1B
Experimental: as §1, §2

[6] = biological target: T1, endogenous TLR4 of mouse BMDMs and …; test: co-IP in BMDMs incubated with recombinant protein at 5 µg/ml (IP αTLR4, IB αHA), FIG. 1A
Experimental: as §1, §2

[7] = biological target: T2, endogenous RAGE of mouse BMDMs and …; test: co-IP in BMDMs incubated with recombinant protein at 5 µg/ml (IP αRAGE, IB αHis), FIG. 1B
Experimental: as §1, §2

[8] = biological target: T1, endogenous TLR4 of mouse BMDMs and …; test: co-IP in BMDMs incubated with recombinant protein at 5 µg/ml (IP αTLR4, IB αHis), FIG. 1A
Experimental: as §1, §2

[9] = biological target: T2, endogenous RAGE of mouse BMDMs and …; test: co-IP from colon lysates of acute colitis, chronic colitis and CRC mice (IP αRAGE, IB αS100A9), FIG. 1D
Experimental: as §1, §2

[10] = biological target: T1, endogenous TLR4 of mouse BMDMs and …; test: co-IP from colon lysates of acute colitis, chronic colitis and CRC mice (IP αTLR4, IB αS100A9), FIG. 1D
Experimental: as §1, §2

TLR4 or RAGE = test: Co-IP of recombinant S100A8 or S100A9 with endogenous TLR4 or RAGE in BMDMs; assay type: binding, mouse; conditions: 5 μg/ml, 10 minutes
Experimental: 293T, BMDMs, and THP-1 cells were treated as indicated and processed for analysis by GST pulldown, Western blotting, and co-IP analysis. For GST pulldown, 293T cells were harvested and lysed in an NP-40 buffer including a complete protease inhibitor cocktail (Roche, Basel, Switzerland). After centrifugation, the supernatant was pre-cleared using protein A/G beads for two hours at 4° C. The pre-cleared lysates were mixed with a 50% slurry of glutathione-conjugated Sepharose beads (Amersham Biosciences, Amersham, UK), and binding reactions were performed for four hours at 4° C. by incubating the lysates at 4° C. The precipitate was extensively washed with a lysis buffer. Proteins bound to the glutathione beads were eluted by boiling for five minutes in a sodium dodecyl sulfate (SDS) loading buffer. For IP, cells were harvested and lysed in an NP-40 buffer supplemented with a complete protease inhibitor cocktail (Roche, Switzerland). […] For immunoblotting (IB), polypeptides were analyzed by SDS-polyacrylamide gel electrophoresis and transferred to polyvinylidene difluoride (PVDF) membranes (Bio-Rad, Hercules, CA, USA). […] Antibody binding was visualized by chemiluminescence (ECL; Millipore, Burlington, MA, USA) and detected using a Vilber chemiluminescence analyzer (Fusion SL 3; Vilber Lourmat). […]

T2 sequence (Q62151 23-402): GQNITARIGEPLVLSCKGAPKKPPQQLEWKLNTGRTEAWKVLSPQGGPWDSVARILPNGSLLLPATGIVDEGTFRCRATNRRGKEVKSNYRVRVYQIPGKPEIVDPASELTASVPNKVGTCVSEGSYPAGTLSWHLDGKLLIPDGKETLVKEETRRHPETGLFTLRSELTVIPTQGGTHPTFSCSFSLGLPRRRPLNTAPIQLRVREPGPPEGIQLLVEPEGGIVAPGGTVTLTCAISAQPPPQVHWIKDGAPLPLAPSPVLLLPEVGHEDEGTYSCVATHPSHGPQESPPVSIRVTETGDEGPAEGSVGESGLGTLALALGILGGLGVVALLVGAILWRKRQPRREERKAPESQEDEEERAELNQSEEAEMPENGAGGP

## O=C1[O][Pt]2([NH][C@@H]3CCCC[C@H]3[NH]2)[O]C1=O [oxaliplatin, reference compound]
[1]
  cell viability of OxaR CRC cells: significant resistance to oxaliplatin treatment

## FLVIKGGAHKSHKGGITIITFGGGHHGG [S100A8/A9]
[2]; read-out: PK parameters (ip, 1 mg/kg, mice (n = 5))^a | Cmax
  Cmax: 102 ± 41.2 ng/mL
[2]; read-out: PK parameters (ip, 1 mg/kg, mice (n = 5))^a | T1/2 (converted)
  half-life: 25.2 ± 30.6 min

B1: endogenous mouse S100A8 (ligand, UniProt P27005 2-89, looked up)
chain: PSELEKALSNLIDVYHNYSNIQGNHHALYKNDFKKMVTTECPQFVQNINIENLFRELDINSDNAINFEEFLAMVIKVGVASHKDSHKE
notes: Endogenous protein detected with αS100A8 in co-immunoprecipitates
[3]
  binding result: binds
[4]
  binding result: binds

B2: rHA-mS100A8 (ligand)
chain: B1 chain
notes: Recombinant protein added to BMDMs at 5 µg/ml; also called rHA-S100A8; rS100A8; not shown: HA tag
[5]
  binding result: binds
[6]
  binding result: binds

B3: rHis-mS100A9 (ligand)
chain: ANKAPSQMERSITTIIDTFHQYSRKEGHPDTLSKKEFRQMVEAQLATFMKKEKRNEALINDIMEDLDTNQDNQLSFEECMMLMAKLIFACHEKLHENNPRGHGHSHGKGCGK
notes: Recombinant protein added to BMDMs at 5 µg/ml; also called rHis-S100A9; rS100A9; not shown: His tag
[7]
  binding result: binds
[8]
  binding result: binds

B4: endogenous mouse S100A9 (ligand, UniProt P31725 2-113, looked up)
chain: B3 chain
notes: Endogenous protein detected with αS100A9 in co-immunoprecipitates
[9]
  binding result: binds
[10]
  binding result: binds

B5: rHis-mS100A9: recombinant His-tagged S100A9 protein (protein)
chain: B3 chain
modifications: left off: small tags and cut ends
notes: recombinant His-tagged S100A9 protein
TLR4 or RAGE
  binding to PRRs (TLR4 and RAGE): stronger binding to PRRs (TLR4 and RAGE) than rHA-mS100A8
